Results on 167 variants are retold here after the RNAGym collection of RNA variant scans (doi:10.7554/elife.80360).

B1: HDV Ribozyme (parent)
chain: GGCCGGCAUGGUCCCAGCCUCCUCGCUGGCGCCGGCUGGGCAACAUUCCGAGGGGACCGUCCCCUCGGUAAUGGCGAAUGGGACCCA

The variants in this series derive from B1. Nature of the series: self-cleavage, relative activity (ratio to wild type); higher = more cleavage; co-transcriptional.
Take A56G C85A: the self-cleavage is 0.95.
As for G10A G74A, the figure is 0.101.
As for G1A G68A, the figure is 0.101.
With C15U U23C, the self-cleavage came out at 1.11.
For the variant G11A C26U, the self-cleavage worked out at 1.12.
As for C44G C84A, the figure is 0.394; as for G39U C58G, 0.506.
The value for C32U C48U was 0.69.
As for A8G G29C, the figure is 0; as for C49U G74U, 0.507; as for A51C A56C, 0.703.
Turning to C57G G73C, the self-cleavage stood at 0.495.
In the case of U60A U72G, the self-cleavage was 0.467.
For A43C A45C, the self-cleavage came out at 0.415.
In the case of U27A U37G, the self-cleavage was determined as 0.119.
In the case of G82C C85A, the self-cleavage amounted to 0.147.
The value for G35C U79A was 0.122; that for U65C C84U was 0.703.
For U12A C33U, the self-cleavage is 0.44.
On to C18A C33A, for which the self-cleavage turned out to be 0.121.
The value for G6A A71C was 0.269; that for C36U C61A was 0.831; that for C13A G25A was 0.0277.
As for G31A C61U, the figure is 0.442; as for C32G G54A, 0.0898.
Consider G29U G52C, for which the self-cleavage was 0.0268.
Consider C18G C44U, for which the self-cleavage was 0.0426.
Regarding C26G G81A, the self-cleavage stood at 0.77.
The value for G25C U79G was 0.0594.
With G29U A70G, the self-cleavage is 0.0396.
As for G2A C49G, the figure is 0.135; as for C15U A70G, 1.07; as for A8U G55U, 0.635.
The value for G2A G52U was 0.201; that for U12A C30A was 0.0652; that for G39U U79A was 0.148.
For the variant C48G G82A, the self-cleavage was 0.403.
For the variant U9C C13U, the self-cleavage was found to be 0.453.
Take C21U C22A: the self-cleavage stood at 0.0482.
As for G31U U47A, the figure is 0.406; as for U9A A70C, 0.767; as for G40C C64A, 0.138.
The value for G28U C49G was 0.116; that for C7U U46C was 0.447; that for U27G G59A was 0.855.
The value for A8U C18G was 0.172; that for U69A A87C was 1.01; that for G28U C44U was 0.0297.
As for G17U G67U, the self-cleavage is 0.609.
On to C15U C44G, for which the self-cleavage was 0.214.
The value for G28A G67U was 0.0536; that for C7A A8U was 0.609.
As for G10C G82C, the figure is 0.0875.
The value for A77U G81U was 0.237.
In the case of G17U G76U, the self-cleavage came out at 0.749.
As to U9C A71U, the self-cleavage was 0.969.
With G40U C85U, the self-cleavage worked out at 0.911.
Consider U12C G59C, for which the self-cleavage was 0.415.
The value for G25C A70C was 0.0639; that for C36G C49G was 0.0773; that for U79C G81A was 0.208.
With U12G U60G, the self-cleavage is 0.831.
The value for C24U C66G was 0.796; that for U9G U37A was 0; that for C61A G80C was 0.201.
On to C3U G68U, for which the self-cleavage turned out to be 0.866.
As for G38C G73U, the figure is 0.13; as for G28C C64A, 0.104.
For the variant A16U G81C, the self-cleavage worked out at 0.342.
U37A C85G: the self-cleavage is 0.0346.
As for G54C C58G, the figure is 1.04; as for U20G C24A, 0.17; as for G38A C85G, 0.157.
For A71G C75A, the self-cleavage is 0.158.
The value for A51G C66G was 0.989; that for C49U G76U was 1.18.
As for C14U G74A, the figure is 0.604; as for C41G C84U, 0.456.
As for C14U C21U, the figure is 0.237.
As for C19G G82A, the self-cleavage was 0.102.
On to G2A, for which the self-cleavage amounted to 0.2.
As for C66A C75U, the self-cleavage is 0.292.
Turning to C18A U72G, the self-cleavage amounted to 0.19.
C13G A56U: the self-cleavage amounted to 0.
As for C64U A71C, the figure is 0.719; as for C22A C32U, 0.19.
The value for G39A G80A was 0.229; that for C44A A87C was 0.74.
The value for U27C G59A was 0.742; that for G10U C49U was 0.955.
C15G G81C: the self-cleavage was 0.375.
For the variant U60A A78U, the self-cleavage worked out at 0.249.
For the variant G1C C57U, the self-cleavage came to 0.252.
For A16U C36A, the self-cleavage was 0.0475.
As for C62G G74C, the figure is 0.172; as for G38C G76U, 0.47; as for A8C A70C, 0.612.
A8C C85A: the self-cleavage is 0.831.
Regarding C7A U60C, the self-cleavage was 0.712.
In the case of U20A C86U, the self-cleavage was determined as 0.119.
As for G10U C21G, the figure is 0; as for C61G A87U, 0.943.
Turning to A51C U65G, the self-cleavage is 0.937.
Regarding U9G A45U, the self-cleavage was 0.692.
As for A8C G38A, the figure is 0.0369; as for G59C G74A, 0.635; as for G10C G25C, 0.178.
As for C13G G74U, the figure is 0.0386; as for C22A G31A, 0.128.
As for G52A A56G, the figure is 0.801; as for C14G C63G, 0.573.
In the case of C33A G52U, the self-cleavage was 0.161.
The value for G34A U60G was 0.237.
As for C36G G74A, the figure is 0.0779; as for C63U G80C, 0.218; as for G11A G67U, 0.237.
As for A16C G39U, the figure is 0.244.
G1A G74C: the self-cleavage came out at 0.
The value for C26G C32A was 0.326; that for C4A C36G was 0.0875; that for C64U G67A was 0.92.
Take U37C G68U: the self-cleavage was determined as 1.05.
As for G2U G31A, the figure is 0.0578.
Take G34C C41U: the self-cleavage worked out at 0.0378.
As for G52A U72G, the figure is 0.749; as for C36A C85A, 0.457.
As to G67U G76A, the self-cleavage worked out at 1.18.
Regarding C36G A43C, the self-cleavage came out at 0.166.
For the variant C14G U69C, the self-cleavage is 0.519.
Take C33G C63U: the self-cleavage is 0.173.
As for G10A G80C, the figure is 0.131.
The value for C49G U65G was 0.489; that for G81U C84U was 0.228.
In the case of G50A U79G, the self-cleavage was determined as 0.629.
C7A C24U: the self-cleavage stood at 0.306.
Take C15G G25C: the self-cleavage turned out to be 0.
The value for U23G G80C was 0.147.
A8G A43U: the self-cleavage came to 0.519.
As for C30G C44U, the figure is 0.0213; as for C15G G28A, 0.0627; as for C3G U37G, 0.123.
The value for C14U A70C was 1.02; that for U37A A87C was 0.17; that for A16C G59U was 0.808.
The value for U47A G67U was 1.14; that for G28C G55U was 0.196; that for G28C G55A was 0.18.
Take U37C C61U: the self-cleavage is 0.884.
Consider G38U G53C, for which the self-cleavage is 0.434.
In the case of G50A G55A, the self-cleavage was found to be 0.783.
As for G17A U79A, the figure is 0.627; as for C21G C57A, 0.166.
As for U47C U69A, the figure is 0.762.
As for C58G U65C, the figure is 0.782; as for G2A C61A, 0.351.
As to C18U G53U, the self-cleavage worked out at 0.918.
Turning to C57U C85A, the self-cleavage came to 0.698.
Consider G35A A77C, for which the self-cleavage worked out at 0.131.
In the case of G54U G74A, the self-cleavage worked out at 0.601.
As for C18G G52A, the figure is 0.156; as for C18A A78C, 0.0978.
Take A16G U27G: the self-cleavage came to 0.594.
Regarding G25A A43G, the self-cleavage is 0.35.
Turning to G29U U79C, the self-cleavage stood at 0.122.
The value for U20C A45G was 0; that for G52A C66U was 0.982.
Take U27A A87C: the self-cleavage was found to be 0.88.
